Assay results as given in patent US20260015399A1 (Boehringer Ingelheim, published 2026).
*1 amine or outer side, *2 acyl side, *3 side chain or, on linkers, in order; H or OH if unused. Side-chain parts run from the residue outwards. The star is where a group is joined. C18 diacid = O=C(O)CCCCCCCCCCCCCCCCC(=O)*; γGlu = O=C(O)[C@H](CCC(=O)[*:2])N[*:1]; Isovaleryl = CC(C)CC(=O)*; Ahx = NCCCCCC(=O)O

Target: T1, human NPY2 receptor (human, UniProt P49146 1-381)
T1 construct: whole, on cells; also called hNPY2-R; hNPY2R
T1 sequence (looked up): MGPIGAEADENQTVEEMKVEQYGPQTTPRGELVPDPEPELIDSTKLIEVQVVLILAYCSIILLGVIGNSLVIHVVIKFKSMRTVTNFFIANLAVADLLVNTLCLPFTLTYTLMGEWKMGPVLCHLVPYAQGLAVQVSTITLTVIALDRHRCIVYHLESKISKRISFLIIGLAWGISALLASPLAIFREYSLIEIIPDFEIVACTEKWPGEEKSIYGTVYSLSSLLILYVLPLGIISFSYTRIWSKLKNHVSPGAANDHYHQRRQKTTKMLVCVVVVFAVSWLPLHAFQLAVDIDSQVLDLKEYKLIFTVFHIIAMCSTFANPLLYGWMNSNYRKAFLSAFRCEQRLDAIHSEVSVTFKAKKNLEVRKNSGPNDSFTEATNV
Experiment: RLB: displacement of 125I-PYY(1-36) from hNPY2R membranes

B1: Compound 151 (peptide)
peptide: Isovaleryl-APEK([Ahx-γGlu-C18 diacid])PEEDSSPEELQRYYVALRHYYNWLTRQRY-NH2
SMILES: CC(C)CC(=O)N[C@@H](C)C(=O)N1CCC[C@H]1C(=O)N[C@@H](CCC(=O)O)C(=O)N[C@@H](CCCCNC(=O)CCCCCNC(=O)CC[C@H](NC(=O)CCCCCCCCCCCCCCCCC(=O)O)C(=O)O)C(=O)N1CCC[C@H]1C(=O)N[C@@H](CCC(=O)O)C(=O)N[C@@H](CCC(=O)O)C(=O)N[C@@H](CC(=O)O)C(=O)N[C@@H](CO)C(=O)N[C@@H](CO)C(=O)N1CCC[C@H]1C(=O)N[C@@H](CCC(=O)O)C(=O)N[C@@H](CCC(=O)O)C(=O)N[C@@H](CC(C)C)C(=O)N[C@@H](CCC(N)=O)C(=O)N[C@@H](CCCNC(=N)N)C(=O)N[C@@H](Cc1ccc(O)cc1)C(=O)N[C@@H](Cc1ccc(O)cc1)C(=O)N[C@H](C(=O)N[C@@H](C)C(=O)N[C@@H](CC(C)C)C(=O)N[C@@H](CCCNC(=N)N)C(=O)N[C@@H](Cc1c[nH]cn1)C(=O)N[C@@H](Cc1ccc(O)cc1)C(=O)N[C@@H](Cc1ccc(O)cc1)C(=O)N[C@@H](CC(N)=O)C(=O)N[C@@H](Cc1c[nH]c2ccccc12)C(=O)N[C@@H](CC(C)C)C(=O)N[C@H](C(=O)N[C@@H](CCCNC(=N)N)C(=O)N[C@@H](CCC(N)=O)C(=O)N[C@@H](CCCNC(=N)N)C(=O)N[C@@H](Cc1ccc(O)cc1)C(N)=O)[C@@H](C)O)C(C)C
notes: printed structure identical to Compound 24
Question: With B1 as the binder, how does the Ki read?
Answer: The Ki was 1.68 nM.

B2: Compound 156 (peptide)
peptide: Isovaleryl-APEK([Ahx-γGlu-C18 diacid])PEEAAEPEEIQRYYVALRHYYNWLTRQRY-NH2
SMILES: CC[C@H](C)[C@H](NC(=O)[C@H](CCC(=O)O)NC(=O)[C@H](CCC(=O)O)NC(=O)[C@@H]1CCCN1C(=O)[C@H](CCC(=O)O)NC(=O)[C@H](C)NC(=O)[C@H](C)NC(=O)[C@H](CCC(=O)O)NC(=O)[C@H](CCC(=O)O)NC(=O)[C@@H]1CCCN1C(=O)[C@H](CCCCNC(=O)CCCCCNC(=O)CC[C@H](NC(=O)CCCCCCCCCCCCCCCCC(=O)O)C(=O)O)NC(=O)[C@H](CCC(=O)O)NC(=O)[C@@H]1CCCN1C(=O)[C@H](C)NC(=O)CC(C)C)C(=O)N[C@@H](CCC(N)=O)C(=O)N[C@@H](CCCNC(=N)N)C(=O)N[C@@H](Cc1ccc(O)cc1)C(=O)N[C@@H](Cc1ccc(O)cc1)C(=O)N[C@H](C(=O)N[C@@H](C)C(=O)N[C@@H](CC(C)C)C(=O)N[C@@H](CCCNC(=N)N)C(=O)N[C@@H](Cc1c[nH]cn1)C(=O)N[C@@H](Cc1ccc(O)cc1)C(=O)N[C@@H](Cc1ccc(O)cc1)C(=O)N[C@@H](CC(N)=O)C(=O)N[C@@H](Cc1c[nH]c2ccccc12)C(=O)N[C@@H](CC(C)C)C(=O)N[C@H](C(=O)N[C@@H](CCCNC(=N)N)C(=O)N[C@@H](CCC(N)=O)C(=O)N[C@@H](CCCNC(=N)N)C(=O)N[C@@H](Cc1ccc(O)cc1)C(N)=O)[C@@H](C)O)C(C)C
Question: With B2 as the binder, how does the Ki read?
Answer: The Ki was 4.2 nM.

B3: Compound 153 (peptide)
peptide: Isovaleryl-APEK([Ahx-γGlu-C18 diacid])PEELATPEELQRYYVSLRHYYNWLTRQRY-NH2
SMILES: CC(C)CC(=O)N[C@@H](C)C(=O)N1CCC[C@H]1C(=O)N[C@@H](CCC(=O)O)C(=O)N[C@@H](CCCCNC(=O)CCCCCNC(=O)CC[C@H](NC(=O)CCCCCCCCCCCCCCCCC(=O)O)C(=O)O)C(=O)N1CCC[C@H]1C(=O)N[C@@H](CCC(=O)O)C(=O)N[C@@H](CCC(=O)O)C(=O)N[C@@H](CC(C)C)C(=O)N[C@@H](C)C(=O)N[C@H](C(=O)N1CCC[C@H]1C(=O)N[C@@H](CCC(=O)O)C(=O)N[C@@H](CCC(=O)O)C(=O)N[C@@H](CC(C)C)C(=O)N[C@@H](CCC(N)=O)C(=O)N[C@@H](CCCNC(=N)N)C(=O)N[C@@H](Cc1ccc(O)cc1)C(=O)N[C@@H](Cc1ccc(O)cc1)C(=O)N[C@H](C(=O)N[C@@H](CO)C(=O)N[C@@H](CC(C)C)C(=O)N[C@@H](CCCNC(=N)N)C(=O)N[C@@H](Cc1c[nH]cn1)C(=O)N[C@@H](Cc1ccc(O)cc1)C(=O)N[C@@H](Cc1ccc(O)cc1)C(=O)N[C@@H](CC(N)=O)C(=O)N[C@@H](Cc1c[nH]c2ccccc12)C(=O)N[C@@H](CC(C)C)C(=O)N[C@H](C(=O)N[C@@H](CCCNC(=N)N)C(=O)N[C@@H](CCC(N)=O)C(=O)N[C@@H](CCCNC(=N)N)C(=O)N[C@@H](Cc1ccc(O)cc1)C(N)=O)[C@@H](C)O)C(C)C)[C@@H](C)O
Question: Which Ki does the source give for B3 here?
Answer: The Ki was 6.8 nM.

B4: Compound 152 (peptide)
peptide: Isovaleryl-APEK([Ahx-γGlu-C18 diacid])PEEDATPEETQRYYVSLRHYYNWLTRQRY-NH2
SMILES: CC(C)CC(=O)N[C@@H](C)C(=O)N1CCC[C@H]1C(=O)N[C@@H](CCC(=O)O)C(=O)N[C@@H](CCCCNC(=O)CCCCCNC(=O)CC[C@H](NC(=O)CCCCCCCCCCCCCCCCC(=O)O)C(=O)O)C(=O)N1CCC[C@H]1C(=O)N[C@@H](CCC(=O)O)C(=O)N[C@@H](CCC(=O)O)C(=O)N[C@@H](CC(=O)O)C(=O)N[C@@H](C)C(=O)N[C@H](C(=O)N1CCC[C@H]1C(=O)N[C@@H](CCC(=O)O)C(=O)N[C@@H](CCC(=O)O)C(=O)N[C@H](C(=O)N[C@@H](CCC(N)=O)C(=O)N[C@@H](CCCNC(=N)N)C(=O)N[C@@H](Cc1ccc(O)cc1)C(=O)N[C@@H](Cc1ccc(O)cc1)C(=O)N[C@H](C(=O)N[C@@H](CO)C(=O)N[C@@H](CC(C)C)C(=O)N[C@@H](CCCNC(=N)N)C(=O)N[C@@H](Cc1c[nH]cn1)C(=O)N[C@@H](Cc1ccc(O)cc1)C(=O)N[C@@H](Cc1ccc(O)cc1)C(=O)N[C@@H](CC(N)=O)C(=O)N[C@@H](Cc1c[nH]c2ccccc12)C(=O)N[C@@H](CC(C)C)C(=O)N[C@H](C(=O)N[C@@H](CCCNC(=N)N)C(=O)N[C@@H](CCC(N)=O)C(=O)N[C@@H](CCCNC(=N)N)C(=O)N[C@@H](Cc1ccc(O)cc1)C(N)=O)[C@@H](C)O)C(C)C)[C@@H](C)O)[C@@H](C)O
Question: How did the Ki turn out when B4 was run?
Answer: The Ki was 1.32 nM.

B5: Compound 154 (peptide)
peptide: Isovaleryl-APEK([Ahx-γGlu-C18 diacid])PEEAATPEEIQRYYVALRHYYNWLTRQRY-NH2
SMILES: CC[C@H](C)[C@H](NC(=O)[C@H](CCC(=O)O)NC(=O)[C@H](CCC(=O)O)NC(=O)[C@@H]1CCCN1C(=O)[C@@H](NC(=O)[C@H](C)NC(=O)[C@H](C)NC(=O)[C@H](CCC(=O)O)NC(=O)[C@H](CCC(=O)O)NC(=O)[C@@H]1CCCN1C(=O)[C@H](CCCCNC(=O)CCCCCNC(=O)CC[C@H](NC(=O)CCCCCCCCCCCCCCCCC(=O)O)C(=O)O)NC(=O)[C@H](CCC(=O)O)NC(=O)[C@@H]1CCCN1C(=O)[C@H](C)NC(=O)CC(C)C)[C@@H](C)O)C(=O)N[C@@H](CCC(N)=O)C(=O)N[C@@H](CCCNC(=N)N)C(=O)N[C@@H](Cc1ccc(O)cc1)C(=O)N[C@@H](Cc1ccc(O)cc1)C(=O)N[C@H](C(=O)N[C@@H](C)C(=O)N[C@@H](CC(C)C)C(=O)N[C@@H](CCCNC(=N)N)C(=O)N[C@@H](Cc1c[nH]cn1)C(=O)N[C@@H](Cc1ccc(O)cc1)C(=O)N[C@@H](Cc1ccc(O)cc1)C(=O)N[C@@H](CC(N)=O)C(=O)N[C@@H](Cc1c[nH]c2ccccc12)C(=O)N[C@@H](CC(C)C)C(=O)N[C@H](C(=O)N[C@@H](CCCNC(=N)N)C(=O)N[C@@H](CCC(N)=O)C(=O)N[C@@H](CCCNC(=N)N)C(=O)N[C@@H](Cc1ccc(O)cc1)C(N)=O)[C@@H](C)O)C(C)C
Question: B5 was tested. Which Ki did it give?
Answer: Its Ki is 3.71 nM.

B6: Compound 155 (peptide)
peptide: Isovaleryl-APEK([Ahx-γGlu-C18 diacid])PEEDATPEELQRYYVSLRHYYNWLSRQRY-NH2
SMILES: CC(C)CC(=O)N[C@@H](C)C(=O)N1CCC[C@H]1C(=O)N[C@@H](CCC(=O)O)C(=O)N[C@@H](CCCCNC(=O)CCCCCNC(=O)CC[C@H](NC(=O)CCCCCCCCCCCCCCCCC(=O)O)C(=O)O)C(=O)N1CCC[C@H]1C(=O)N[C@@H](CCC(=O)O)C(=O)N[C@@H](CCC(=O)O)C(=O)N[C@@H](CC(=O)O)C(=O)N[C@@H](C)C(=O)N[C@H](C(=O)N1CCC[C@H]1C(=O)N[C@@H](CCC(=O)O)C(=O)N[C@@H](CCC(=O)O)C(=O)N[C@@H](CC(C)C)C(=O)N[C@@H](CCC(N)=O)C(=O)N[C@@H](CCCNC(=N)N)C(=O)N[C@@H](Cc1ccc(O)cc1)C(=O)N[C@@H](Cc1ccc(O)cc1)C(=O)N[C@H](C(=O)N[C@@H](CO)C(=O)N[C@@H](CC(C)C)C(=O)N[C@@H](CCCNC(=N)N)C(=O)N[C@@H](Cc1c[nH]cn1)C(=O)N[C@@H](Cc1ccc(O)cc1)C(=O)N[C@@H](Cc1ccc(O)cc1)C(=O)N[C@@H](CC(N)=O)C(=O)N[C@@H](Cc1c[nH]c2ccccc12)C(=O)N[C@@H](CC(C)C)C(=O)N[C@@H](CO)C(=O)N[C@@H](CCCNC(=N)N)C(=O)N[C@@H](CCC(N)=O)C(=O)N[C@@H](CCCNC(=N)N)C(=O)N[C@@H](Cc1ccc(O)cc1)C(N)=O)C(C)C)[C@@H](C)O
Question: For B6, which Ki is on record?
Answer: The Ki was 7.6 nM.
